Measurements as given in patent US20240343810A1 (published 2024).

T1: Biotinylated human ICOS protein (human, UniProt Q9Y6W8 21-140, limits assumed, biotinylated (sites not given))
T1 construct: Captured on the NLC chip in the avidity SPR
T1 sequence: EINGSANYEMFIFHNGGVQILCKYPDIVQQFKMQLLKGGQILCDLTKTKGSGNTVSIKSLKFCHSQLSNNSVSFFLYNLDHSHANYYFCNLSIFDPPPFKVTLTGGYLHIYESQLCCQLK

T2: human ICOS-mFc (Chimerigen) (human, UniProt Q9Y6W8 21-140)
T2 construct: Bought; also called recombinant human ICOS protein; hICOS; not shown: mouse Fc of the bought fusion
T2 sequence: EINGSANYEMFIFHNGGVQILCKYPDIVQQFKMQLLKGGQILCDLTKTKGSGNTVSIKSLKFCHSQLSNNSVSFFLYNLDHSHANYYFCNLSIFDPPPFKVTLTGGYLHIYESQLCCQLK

T3: human ICOS expressed on cells (human, UniProt Q9Y6W8 21-199)
T3 sequence: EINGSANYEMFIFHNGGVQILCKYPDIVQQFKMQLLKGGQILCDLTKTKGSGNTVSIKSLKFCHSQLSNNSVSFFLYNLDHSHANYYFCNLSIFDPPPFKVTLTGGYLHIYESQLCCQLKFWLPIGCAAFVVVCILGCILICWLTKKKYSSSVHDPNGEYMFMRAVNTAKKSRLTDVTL

T4: mouse ICOS-mFc (Chimerigen) (mouse, UniProt Q9WVS0 21-141, limits assumed)
T4 construct: Bought; also called recombinant mouse ICOS protein; mICOS; not shown: mouse Fc of the bought fusion
T4 sequence: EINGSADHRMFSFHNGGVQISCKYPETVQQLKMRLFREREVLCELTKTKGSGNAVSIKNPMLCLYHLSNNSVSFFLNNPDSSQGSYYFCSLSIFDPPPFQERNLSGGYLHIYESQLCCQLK


Legend:
[1] = molecular target: T1, Biotinylated human ICOS protein; test: SPR ProteOn avidity format, biotinylated human ICOS on NLC chip, antibody analyte, 25 C
Procedure: Biotinylated human ICOS protein diluted at 7.5 μg/mL in running buffer (1× HBS-EP+ Buffer Technova, cat. No. H8022) was captured on a NLC sensor chip (Bio-Rad, cat No 1765021). The surface was then blocked using biocytin (Sigma Aldrich, cat No B1758) at 1 mg/mL.
The assay was carried out at 25° C.
The buffer injection (i.e. 0 nM) was used to double reference the sensorgrams. The analysis was carried out using the equilibrium model inherent to the ProteOn's analysis software for each mAb² construct.

[2] = molecular target: T2, human ICOS-mFc (Chimerigen); test: DELFIA ELISA on coated human ICOS-mFc, N=3
Procedure: (§1) Recombinant ICOS proteins, human ICOS-mFc or mouse ICOS-mFc (Chimerigen) were diluted in 1×PBS and added to Black Hi-bind plates (Griener) at 1 μg/ml, 50 μl/well. Recombinant PD-L1 proteins, human PD-L1-Flag-His or mouse-His were diluted in 1×PBS and added to Black Hi-bind plates (Griener) at 4 μg/ml, 50 μl/well. The plates were left overnight at 4° C. The next day plates were washed 3× with 300 μl/well of 1×PBS+0.1% Tween and blocked with 200 ul/well of 1×PBS+1% BSA blocking buffer for 1 hr at RT on a plate shaker. Plates were washed 3× with 300 μl/well of 1×PBS+0.1% Tween.
(§2) However, human-PD-L1 mAb² antibodies were diluted in 1×PBS+0.1% BSA buffer and diluted 1 in 2 from a starting working concentration of 0.066 μM over an 11 point titration. Titrated antibodies were added to the plates, 50 μl/well and left to incubate for 1 hr at R.T on a plate shaker. Plates were washed 3× with 300 μl/well of 1×PBS+0.1% Tween.
(§3) DELFIA® Eu-labelled Anti-human IgG (Perkin-Elmer) was diluted 1:500 in DELFIA Assay buffer (Perkin-Elmer) and added to the assay plate (50 μl/well), left to incubate for 1 hr at RT on a plate shaker. […] After incubation, assay was read on Envision plate reader (Perkin Elmer), Time-resolved fluorescence (TRF) was measured at 615 nm.

[3] = molecular target: T2, human ICOS-mFc (Chimerigen); test: HTRF, human ICOS-mFc, competitor human B7-H2-Alexa 647, average
Procedure: (§4) 5 μl of human ICOS-mFc (Chimerigen) at 20 nM (5 nM final) or 5 ul of mouse ICOS-mFc (Chimerigen) at 4 nM (1 nM final) were added to relevant assay wells. Plate was incubated for 1 hour (hr) at room temperature (RT).
(§5) After incubation, assay was read on Envision plate reader (Perkin Elmer) using a standard HTRF protocol. 620 nm and 665 nm channel values were exported to Microsoft Excel and % Delta-F and % Neutralisation calculations performed. Titration curves and IC50 values [M] were plotted using Graphpad (Prism). IC50 values were calculated by first transforming the data using equation X=Log(X). The transformed data was then fitted using nonlinear regression, using fitting algorithm, log (inhibitor) vs. response—variable slope (four parameters).

[4] = molecular target: T3, human ICOS expressed on cells; test: cell-based or functional assay
[5] = molecular target: T4, mouse ICOS-mFc (Chimerigen); test: DELFIA ELISA on coated mouse ICOS-mFc, N=2
Procedure: as §1, §2, §3

[6] = molecular target: T4, mouse ICOS-mFc (Chimerigen); test: HTRF, mouse ICOS-mFc, competitor mouse B7-H2-Alexa 647, n3
Procedure: as §4, §5

Row | koff [1] [s⁻¹] | EC50 [2] [nM] | IC50 [3] [nM] | EC50 of IFN-γ production, plate-bound antibody, human T-cells + CD3/CD28 beads, donor 276 [4] [nM] | EC50 of IFN-γ production, plate-bound antibody, human T-cells + CD3/CD28 beads, donor 278 [4] [nM] | EC50 of IFN-γ production, plate-bound antibody, human T-cells + CD3/CD28 beads, donor 289 [4] [nM] | EC50 of IFN-γ production, plate-bound antibody, human T-cells + CD3/CD28 beads, donor 295 [4] [nM] | EC50 of IFN-γ production, plate-bound antibody, human T-cells + CD3/CD28 beads, median [4] [nM] | EC50 [5] [nM] | IC50 [6] [nM] | Binder
1 | 0.000449 | 0.727 | 0.53 | 7.1 | 3.8 | ~4 | ~11.6 | 5.55 | 0.386 | 0.11 | STIM003 (antibody, human IgG1, kappa, Anti-ICOS monospecific antibody, tested as human IgG1; also called STIM003 monoclonal IgG1 antibody) heavy: not shown light: EIVLTQSPGTLSLSPGERATLSCRASQSVSRSYLAWYQQKRGQAPRLLIYGASSRATGIPDRFSGDGSGTDFTLSISRLEPEDFAVYYCHQYDMSPFTFGPGTKVDIKRTVAAPSVFIFPPSDEQLKSGTASVVCLLNNFYPREAKVQWKVDNALQSGNSQESVTEQDSKDSTYSLSSTLTLSKADYEKHKVYACEVTHQGLSSPVTKSFNRGEC
2 | 0.000456 | 41.3 | 1.47 | ~9.9 | ~10.2 | ~11.2 | 14.5 | 10.7 | 18.7 | 9.25 | STIM001 (antibody, human IgG1, kappa, Anti-ICOS monospecific antibody, tested as human IgG1; also called STIM001 monoclonal IgG1 antibody) heavy: not shown light: DIVMTQSPLSLPVTPGEPASISCRSSQSLLHSNEYNYLDWYLQKPGQSPQLLIFLGSNRASGVPDRFSGSGSGTDFTLKITRVEAEDVGIYYCMQSLQTPLTFGGGTKVEIKRTVAAPSVFIFPPSDEQLKSGTASVVCLLNNFYPREAKVQWKVDNALQSGNSQESVTEQDSKDSTYSLSSTLTLSKADYEKHKVYACEVTHQGLSSPVTKSFNRGEC
